The text below walks through data of patent US20160032259A1 (KOREA ADVANCED INSTITUTE OF SCIENCE AND TECHNOLOGY KAIST, published 2016).

Positions count from the first letter of the chain named.

To fix the notation:
B1: VEGF-Trap (Fc fusion, UniProt P17948 129-230, looked up, not shown: a dimerising Fc or GST)
chain: SDTGRPFVEMYSEIPEIIHMTEGRELVIPCRVTSPNITVTLKKFPLDTLIPDGKRIIWDSRKGFIISNATYKEIGLLTCEATVNGHLYKTNYLTHRQTNTIIDVVLSPSHGIELSVGEKLVLNCTARTELNVGIDFNWEYPSSKHQHKKLVNRDLKTQSGSEMKKFLSTLTIDGVTRSDQGLYTCAASSGLMTKKNSTFVRVHEK
modifications: N-glycans at Asn61, Asn93 and Asn328
B2: VEGF-Grab1 (Fc fusion)
chain: EFGRPFVEMYSEIPEIIHMYEGRELVIPCRVTSPNITVTLKKFPLDTLIPDGKRIIWDSRKGFIISNATYKEIGLLTCEATVNGHLYKTNYLTHRQTNTIIDVQISTPSPVTLLRGHTLVLNCTRTTPLNTRVQMTWSYPDEKNKRASVRRRIDQSNSHANIFYSVLTIDKMQNKDKGLYTCRVRSGPSFKSVNTSVHIYDKALEDKTHTCPPCPAPELLGGPSVFLFPPKPKDTLMISRTPEVTCVVVDVSHEDPEVKFNWYVDGVEVHNAKTKPREEQYNSTYRVVSVLTVLHQDWLNGKEYKCKVSNKALPAPIEKTISKAKGQPREPQVYTLPPSREEMTKNQVSLTCLVKGFYPSDIAVEWESNGQPENNYKYYPPVLDSDGSFFLYSKKTVDKSRWQQGNVFSCSVMHEALHNHYTQKSLSLSPGK
modifications: O-linked glycan (HexNAc1Hex1NeuAc1) at Ser135; N-glycans at Asn61, Asn93 and Asn308; no evidence of O-glycosylation at Thr138
notes: Produced in CHO cells, protein A purified; also called G1; VEGF-Grabs
B3: VEGF-Grab3 (Fc fusion)
chain: B2 chain with R146N
modifications: O-linked glycan (HexNAc1Hex1NeuAc1) at Ser135; N-glycans at Asn61, Asn93 and Asn308; mutated Asn172 not glycosylated; no evidence of O-glycosylation at Thr138
notes: Produced in CHO cells, protein A purified; also called G3; VEGF-Grabs
B4: PlGF (ligand)
chain: LPAVPPQQWALSAGNGSSEVEVVPFQEVWGRSYCRALERLVDVVSEYPSEVEHMFSPSCVSLLRCTGCCGDENLHCVPVETANVTMQLLKIRSGDRPSYVELTFSQHVRCECRHSPGRQSPDMPGDFRADA
B5: hVEGF-A165 (ligand, human, UniProt P15692-4 27-191, looked up)
chain: APMAEGGGQNHHEVVKFMDVYQRSYCHPIETLVDIFQEYPDEIEYIFKPSCVPLMRCGGCCNDEGLECVPTEESNITMQIMRIKPHQGQHIGEMSFLQHNKCECRPKKDRARQENPCGPCSERRKHLFVQDPQTCKCSCKNTDSRCKARQLELNERTCRCDKPRR
notes: The cell assays name only 'VEGF-A' without the isoform

In assay [1] the target is B5. Nature of the assay: cell-based or functional assay.
The target in assay [2] is B5. The experiment in a line: solid phase binding ELISA; hVEGF-A165 coated, Fc fusion titrated, anti-human Fc-HRP. The protocol: (§1) The binding affinities of VEGF-Grabs to ligands were measured by ELISA as described previously. Briefly, the MaxiSorp plates (Nunc) were coated with either hVEGF-A₁₆₅(150 ng/ml), PlGF (62.5 ng/ml), or hVEGF-B (125 ng/ml) and serially increasing amounts (0.1 nM-10 μM) of VEGF-Grabs or VEGF-Trap were added. After washing, the plates were incubated with HRP-conjugated goat anti-human Fc antibody. Then, 3,3′,5,5′-tetramethylbenzidine (TMB) solution (Sigma-Aldrich) was added and absorbance was measured by ELISA reader (BioRad) at 450 nm.

The target in assay [3] is B4. Nature of the assay: solid phase binding ELISA; PlGF coated; reference VT. As to the method:
as §1

In assay [4] the target is B5. The experiment in a line: solid phase binding ELISA; hVEGF-A165 coated; reference VT. As to the method: as §1
Assay [5] concerns the target B4. Nature of the assay: solid phase binding ELISA; PlGF coated, Fc fusion titrated, anti-human Fc-HRP. The protocol: as §1
The target in assay [6] is B1. The description is as above. The protocol:
as §1

Assay [7] deals with B1. Nature of the assay: solid phase binding ELISA; hVEGF-A165 coated, Fc fusion titrated, anti-human Fc-HRP. The protocol: as §1

On to B1, for which the “IC50 of VEGF-A-induced proliferation of HUVECs” value (from here on “IC50”) with hVEGF-A165 [1] stood at 4.8 nM.

Take B2: the Kd was 0.79 nM with hVEGF-A165 [2] and 2.8 nM in the assay with PlGF [5]. In the assay with PlGF [3], the “fold more potent binding affinity than VT” value worked out at 18.5 fold. Besides, the “fold higher affinity than VT” value in the assay with hVEGF-A165 [4] came out at 1.1 fold. Besides, the “IC50” value with hVEGF-A165 [1] turned out to be 1.7 nM. In addition, the “fold more efficient than VT in inhibiting VEGF-A-induced proliferation of HUVECs” value in the assay with hVEGF-A165 [1] was 2.8 fold.

As for B3, the affinity with hVEGF-A165 [2], expressed as Kd, was 0.56 nM. Further, the “fold more potent binding affinity than VT” value in the assay with PlGF [3] worked out at 6.7 fold. The “fold higher affinity than VT” value with hVEGF-A165 [4] came out at 1.5 fold. Besides, in the assay with hVEGF-A165 [1], the “IC50” value worked out at 2.4 nM and the “fold more efficient than VT in inhibiting VEGF-A-induced proliferation of HUVECs” value is 2 fold. The molecule also displayed a Kd in the assay with PlGF [5] of 6.9 nM.

With B4, the Kd in the assay with VEGF-Trap [6] is 46 nM.

The molecule B5 registered a Kd with VEGF-Trap [7] of 0.84 nM.
